Test results reported in patent US8840891 (RSR, dated 2014).
Like-named read-outs stand apart in the source and are kept apart here.

Assays:
[1] = biological target: wild type human TSHR (human) (UniProt P16473); test: cell-based or functional assay
[2] = biological target: TSHR with Ile60 mutated to Alanine (human) (UniProt P16473); test: cell-based or functional assay
[3] = biological target: TSHR with Arg255 mutated to Aspartic acid (human) (UniProt P16473); test: cell-based or functional assay
[4] = biological target: wild type human TSHR (human) (UniProt P16473); test: cell-based or functional assay; remark: listed apart in the source
[5] = biological target: TSHR with Gln235 mutated to Alanine (human) (UniProt P16473); test: cell-based or functional assay
[6] = biological target: wild type human TSHR (human) (UniProt P16473); test: cell-based or functional assay; remark: listed apart in the source
[7] = biological target: TSHR with Glu251 mutated to Alanine expressed on CHO cells (human) (UniProt P16473); test: cell-based or functional assay
[8] = biological target: wild type human TSHR (thyrotropin receptor) expressed on CHO cells (human) (UniProt P16473); test: cell-based or functional assay
[9] = biological target: TSHR coated onto tubes (TSHR coated tubes) (human) (UniProt P16473); test: TSHR coated tubes, in presence of HBD pool
[10] = biological target: wild type human TSHR (thyrotropin receptor) expressed on CHO cells (human) (UniProt P16473); test: cell-based or functional assay; remark: listed apart in the source
[11] = biological target: TSHR with Tyr206 mutated to Alanine expressed on CHO cells (human) (UniProt P16473); test: cell-based or functional assay
[12] = biological target: wild type human TSHR (thyrotropin receptor) expressed on CHO cells (human) (UniProt P16473); test: cell-based or functional assay; remark: listed apart in the source
[13] = biological target: TSHR with Lys250 mutated to Alanine expressed on CHO cells (human) (UniProt P16473); test: cell-based or functional assay
[14] = biological target: TSHR coated on ELISA plate wells (RSR Ltd) (human) (UniProt P16473); test: ELISA on TSHR-coated wells, 5C9 IgG-biotin binding with HBD pool (no competitor)
[15] = biological target: wild type human TSHR (thyrotropin receptor) expressed on CHO cells (human) (UniProt P16473); test: cell-based or functional assay; remark: listed apart in the source
[16] = biological target: TSHR with His105 mutated to Alanine expressed on CHO cells (human) (UniProt P16473); test: cell-based or functional assay

5C9 IgG (antibody)
cyclic AMP; 5C9 0.01 µg/mL + TSH (fmol/cell well) [1]: 8020 | cyclic AMP; 5C9 0.1 µg/mL + TSH (fmol/cell well) [1]: 7100 | cyclic AMP; 5C9 1.0 µg/mL + TSH (fmol/cell well) [1]: 1570 | cyclic AMP; 5C9 10 µg/mL + TSH (fmol/cell well) [1]: 1770 | cyclic AMP; 5C9 100 µg/mL + TSH (fmol/cell well) [1]: 1730 | cyclic AMP; 5C9 100 µg/mL only (fmol/cell well) [1]: 61 | Mutated/wild type (%); 5C9 0.01 µg/mL + TSH [2]: 236% | Mutated/wild type (%); 5C9 0.1 µg/mL + TSH [2]: 164% | Mutated/wild type (%); 5C9 1.0 µg/mL + TSH [2]: 210% | Mutated/wild type (%); 5C9 10 µg/mL + TSH [2]: 68% | Mutated/wild type (%); 5C9 100 µg/mL + TSH [2]: 181% | Mutated/wild type (%); 5C9 100 µg/mL only [2]: 426% | cyclic AMP; 5C9 0.01 µg/mL + TSH (fmol/cell well) [2]: 19000 | cyclic AMP; 5C9 0.1 µg/mL + TSH (fmol/cell well) [2]: 11600 | cyclic AMP; 5C9 1.0 µg/mL + TSH (fmol/cell well) [2]: 3290 | cyclic AMP; 5C9 10 µg/mL + TSH (fmol/cell well) [2]: 1210 | cyclic AMP; 5C9 100 µg/mL + TSH (fmol/cell well) [2]: 3130 | cyclic AMP; 5C9 100 µg/mL only (fmol/cell well) [2]: 260 | Mutated/wild type (%); 5C9 0.01 µg/mL + TSH [3]: 89% | Mutated/wild type (%); 5C9 0.1 µg/mL + TSH [3]: 85% | Mutated/wild type (%); 5C9 1.0 µg/mL + TSH [3]: 57% | Mutated/wild type (%); 5C9 10 µg/mL + TSH [3]: 59% | Mutated/wild type (%); 5C9 100 µg/mL + TSH [3]: 94% | Mutated/wild type (%); 5C9 100 µg/mL only [3]: 201% | cyclic AMP; 5C9 0.01 µg/mL + TSH (fmol/cell well) [3]: 15700 | cyclic AMP; 5C9 0.1 µg/mL + TSH (fmol/cell well) [3]: 5580 | cyclic AMP; 5C9 1.0 µg/mL + TSH (fmol/cell well) [3]: 1930 | cyclic AMP; 5C9 10 µg/mL + TSH (fmol/cell well) [3]: 735 | cyclic AMP; 5C9 100 µg/mL + TSH (fmol/cell well) [3]: 1410 | cyclic AMP; 5C9 100 µg/mL only (fmol/cell well) [3]: 559 | cyclic AMP; 5C9 0.01 µg/mL + TSH (fmol/cell well) [4]: 17500 | cyclic AMP; 5C9 0.1 µg/mL + TSH (fmol/cell well) [4]: 6600 | cyclic AMP; 5C9 1.0 µg/mL + TSH (fmol/cell well) [4]: 3380 | cyclic AMP; 5C9 10 µg/mL + TSH (fmol/cell well) [4]: 1240 | cyclic AMP; 5C9 100 µg/mL + TSH (fmol/cell well) [4]: 1510 | cyclic AMP; 5C9 100 µg/mL only (fmol/cell well) [4]: 278 | Mutated/wild type (%); 5C9 0.01 µg/mL + TSH [5]: 244% | Mutated/wild type (%); 5C9 0.1 µg/mL + TSH [5]: 96% | Mutated/wild type (%); 5C9 1.0 µg/mL + TSH [5]: 95% | Mutated/wild type (%); 5C9 10 µg/mL + TSH [5]: 192% | Mutated/wild type (%); 5C9 100 µg/mL + TSH [5]: 97% | Mutated/wild type (%); 5C9 100 µg/mL only [5]: 215% | cyclic AMP; 5C9 0.01 µg/mL + TSH (fmol/cell well) [5]: 17500 | cyclic AMP; 5C9 0.1 µg/mL + TSH (fmol/cell well) [5]: 7440 | cyclic AMP; 5C9 1.0 µg/mL + TSH (fmol/cell well) [5]: 2420 | cyclic AMP; 5C9 10 µg/mL + TSH (fmol/cell well) [5]: 1020 | cyclic AMP; 5C9 100 µg/mL + TSH (fmol/cell well) [5]: 727 | cyclic AMP; 5C9 100 µg/mL only (fmol/cell well) [5]: 256 | cyclic AMP; 5C9 0.01 µg/mL + TSH (fmol/cell well) [6]: 7180 | cyclic AMP; 5C9 0.1 µg/mL + TSH (fmol/cell well) [6]: 7780 | cyclic AMP; 5C9 1.0 µg/mL + TSH (fmol/cell well) [6]: 2540 | cyclic AMP; 5C9 10 µg/mL + TSH (fmol/cell well) [6]: 532 | cyclic AMP; 5C9 100 µg/mL + TSH (fmol/cell well) [6]: 747 | cyclic AMP; 5C9 100 µg/mL only (fmol/cell well) [6]: 119

B1: 5C9 IgG (human monoclonal autoantibody to the TSHR) (antibody, from another filing, V domains shown)
VH: EVQLVESGGGLIQPGGSLRLSCAASGFTVSSNYMSWVRQAPGKGLEWVSVTYSGGSTSYADSVKGRFTISRDNSKNTLYLQMNSLRAEDTAVYYCARGGRYCSSISCYARSGCDYWGQGTLVTVSS
VL: AIQMTQSPSSLSASVGDRVTITCRASQSISNYLNWYQQKPGKAPKLLIYAASSLQSGVPSRFSGSGSGTDFTLTISSLQPEDFATYYCQQSYSSPSTTFGQGTKLEIK
Cyclic AMP produced; 5C9 0.01 µg/mL + TSH (fmol/cell well) [7]: 22000 | Cyclic AMP produced; 5C9 0.1 µg/mL + TSH (fmol/cell well) [7]: 15500 | Cyclic AMP produced; 5C9 1.0 µg/mL + TSH (fmol/cell well) [7]: 5240 | Cyclic AMP produced; 5C9 10 µg/mL + TSH (fmol/cell well) [7]: 1880 | Cyclic AMP produced; 5C9 100 µg/mL + TSH (fmol/cell well) [7]: 1170 | Cyclic AMP produced; 5C9 100 µg/mL only (fmol/cell well) [7]: 406 | Mutated/wild type (%); 5C9 0.01 µg/mL + TSH [7]: 104% | Mutated/wild type (%); 5C9 0.1 µg/mL + TSH [7]: 180% | Mutated/wild type (%); 5C9 1.0 µg/mL + TSH [7]: 573% | Mutated/wild type (%); 5C9 10 µg/mL + TSH [7]: 250% | Mutated/wild type (%); 5C9 100 µg/mL + TSH [7]: 236% | Mutated/wild type (%); 5C9 100 µg/mL only [7]: 88% | Cyclic AMP produced; 5C9 0.01 µg/mL + TSH (fmol/cell well) [8]: 21200 | Cyclic AMP produced; 5C9 0.1 µg/mL + TSH (fmol/cell well) [8]: 8640 | Cyclic AMP produced; 5C9 1.0 µg/mL + TSH (fmol/cell well) [8]: 915 | Cyclic AMP produced; 5C9 10 µg/mL + TSH (fmol/cell well) [8]: 752 | Cyclic AMP produced; 5C9 100 µg/mL + TSH (fmol/cell well) [8]: 496 | Cyclic AMP produced; 5C9 100 µg/mL only (fmol/cell well) [8]: 460 | % binding of labelled tracer [9]: 20% | Cyclic AMP produced; 5C9 0.01 µg/mL + TSH (fmol/cell well) [10]: 16100 | Cyclic AMP produced; 5C9 0.1 µg/mL + TSH (fmol/cell well) [10]: 6220 | Cyclic AMP produced; 5C9 1.0 µg/mL + TSH (fmol/cell well) [10]: 1310 | Cyclic AMP produced; 5C9 10 µg/mL + TSH (fmol/cell well) [10]: 396 | Cyclic AMP produced; 5C9 100 µg/mL + TSH (fmol/cell well) [10]: 292 | Cyclic AMP produced; 5C9 100 µg/mL only (fmol/cell well) [10]: 444 | Cyclic AMP produced; 5C9 0.01 µg/mL + TSH (fmol/cell well) [11]: 18400 | Cyclic AMP produced; 5C9 0.1 µg/mL + TSH (fmol/cell well) [11]: 10800 | Cyclic AMP produced; 5C9 1.0 µg/mL + TSH (fmol/cell well) [11]: 3460 | Cyclic AMP produced; 5C9 10 µg/mL + TSH (fmol/cell well) [11]: 1560 | Cyclic AMP produced; 5C9 100 µg/mL + TSH (fmol/cell well) [11]: 506 | Cyclic AMP produced; 5C9 100 µg/mL only (fmol/cell well) [11]: 482 | Mutated/wild type (%); 5C9 0.01 µg/mL + TSH [11]: 114% | Mutated/wild type (%); 5C9 0.1 µg/mL + TSH [11]: 174% | Mutated/wild type (%); 5C9 1.0 µg/mL + TSH [11]: 265% | Mutated/wild type (%); 5C9 10 µg/mL + TSH [11]: 395% | Mutated/wild type (%); 5C9 100 µg/mL + TSH [11]: 173% | Mutated/wild type (%); 5C9 100 µg/mL only [11]: 109% | Cyclic AMP produced; 5C9 0.01 µg/mL + TSH (fmol/cell well) [12]: 15200 | Cyclic AMP produced; 5C9 0.1 µg/mL + TSH (fmol/cell well) [12]: 6300 | Cyclic AMP produced; 5C9 1.0 µg/mL + TSH (fmol/cell well) [12]: 643 | Cyclic AMP produced; 5C9 10 µg/mL + TSH (fmol/cell well) [12]: 286 | Cyclic AMP produced; 5C9 100 µg/mL + TSH (fmol/cell well) [12]: 158 | Cyclic AMP produced; 5C9 100 µg/mL only (fmol/cell well) [12]: 458 | Cyclic AMP produced; 5C9 0.01 µg/mL + TSH (fmol/cell well) [13]: 14500 | Cyclic AMP produced; 5C9 0.1 µg/mL + TSH (fmol/cell well) [13]: 8490 | Cyclic AMP produced; 5C9 1.0 µg/mL + TSH (fmol/cell well) [13]: 2570 | Cyclic AMP produced; 5C9 10 µg/mL + TSH (fmol/cell well) [13]: 862 | Cyclic AMP produced; 5C9 100 µg/mL + TSH (fmol/cell well) [13]: 96 | Cyclic AMP produced; 5C9 100 µg/mL only (fmol/cell well) [13]: 448 | Mutated/wild type (%); 5C9 0.01 µg/mL + TSH [13]: 95% | Mutated/wild type (%); 5C9 0.1 µg/mL + TSH [13]: 135% | Mutated/wild type (%); 5C9 1.0 µg/mL + TSH [13]: 399% | Mutated/wild type (%); 5C9 10 µg/mL + TSH [13]: 301% | Mutated/wild type (%); 5C9 100 µg/mL + TSH [13]: 61% | Mutated/wild type (%); 5C9 100 µg/mL only [13]: 98% | Abs 450 nm [14]: 2.42 Abs 450 nm | Cyclic AMP produced; 5C9 0.01 µg/mL + TSH (fmol/cell well) [15]: 16700 | Cyclic AMP produced; 5C9 0.1 µg/mL + TSH (fmol/cell well) [15]: 3510 | Cyclic AMP produced; 5C9 1.0 µg/mL + TSH (fmol/cell well) [15]: 454 | Cyclic AMP produced; 5C9 10 µg/mL + TSH (fmol/cell well) [15]: 289 | Cyclic AMP produced; 5C9 100 µg/mL + TSH (fmol/cell well) [15]: 223 | Cyclic AMP produced; 5C9 100 µg/mL only (fmol/cell well) [15]: 234 | Cyclic AMP produced; 5C9 0.01 µg/mL + TSH (fmol/cell well) [16]: 24200 | Cyclic AMP produced; 5C9 0.1 µg/mL + TSH (fmol/cell well) [16]: 2870 | Cyclic AMP produced; 5C9 1.0 µg/mL + TSH (fmol/cell well) [16]: 561 | Cyclic AMP produced; 5C9 10 µg/mL + TSH (fmol/cell well) [16]: 434 | Cyclic AMP produced; 5C9 100 µg/mL + TSH (fmol/cell well) [16]: 134 | Cyclic AMP produced; 5C9 100 µg/mL only (fmol/cell well) [16]: 520 | Mutated/wild type (%); 5C9 0.01 µg/mL + TSH [16]: 145% | Mutated/wild type (%); 5C9 0.1 µg/mL + TSH [16]: 82% | Mutated/wild type (%); 5C9 1.0 µg/mL + TSH [16]: 124% | Mutated/wild type (%); 5C9 10 µg/mL + TSH [16]: 150% | Mutated/wild type (%); 5C9 100 µg/mL + TSH [16]: 60% | Mutated/wild type (%); 5C9 100 µg/mL only [16]: 222%
